Publication PMC7467872

Columns and labels:
[1] = target: His-tagged FP8_v1 (HIV-1); test: BLI
[2] = target: His-tagged FP8_v1 (HIV-1); test: SPR
[3] = target: BG505 DS-SOSIP ∆88 Env trimer (glycan N88 removed) (HIV-1 strain BG505); test: SPR

B1: VRC34-pI3 P33A (heavy chain) mutant antibody (antibody, V domains shown)
VH: QEVLVQSGAEVKKPGASVKVSCKAFGYTFTGNAMHWVRQAPGQGLEWMGWINPHSGDTTTAQKFQGRVYMTRDKSINTAYLDVTRLTSDDTAIYYCARDKYYGNEAVGMDVWGQGTTVTVSS
VL: DIQLTQSPSFLSASVGDRVTITCRASQGISNELAWYQQKPGKAPNLLIYYASTLQSGVPSRFSASGSGTHFTLTISSLQPEDFATYFCQHMSSYPLTFGGGTKVEIK
Kd [1]: 60 nM

B2: VRC34.07 Fab (Fab, V domains shown)
VH: SQYLAQPGAEVAKPGASVKVSCKVHGDNFRGHYLHWVRQAPGQGLQWIGGINPFSGEAAYGKRFEGRLRLTRDTSVNTAYMELAKLTPDDTAVYFCARDKTYNDEFTAMDIWGHGTTVIVSS
VL: DIKLTQSPAFLSASVGERVTFTCRASQDISHDLVWFQQKAGRAPSLLMFYGSTLERGVPPRFSGRRSGTEFTVTIDSLQPEDVGTYYCQQLSAFPLTFGGGTTVDIK
Kd [2]: 0.2 nM

B3: VRC34.05 Fab (Fab, V domains shown)
VH: SQYLAQSGSEVKKPGASVKVSCRLHGDKFGAHYIHWVRQAPGQGLEWLGFFHPGTGDAVSAQKFQGRISLTRDTSISTGYLEVRRLSSDDTAVYYCARDKTYSDEATGMDIWGQGTTVIVSS
VL: DIKLTQSPAFLSASVGERVTFTCRASQDIRHELVWYQQKPGRGPKLLIYYGSTLEGGVPSRFSGRRSGTEFTVTISSLQPEDVGTYYCQQLNSFPLTFGGGTTVDIR
fold decrease of affinity against the BG505 trimer with glycan N88 [3]: 100 fold
